According to patent publication US8119387B2, “Polypeptides of strain Bacillus sp. P203” (Novozymes A/S, priority 2005, dated 2012):

Legend:
[1] = biological target: recombinant carbonic anhydrase (SEQ ID NO: 4) from Bacillus sp. P203 (Alkalicoccobacillus plakortidis, UniProt A0ABT0XM38); conditions: read-out: IC50, inhibition of recombinant carbonic anhydrase; purified recombinant enzyme from Bacillus sp. P203
Description: A standard assay contained 900 microliter of PNPA, 10 microliter of 300 mM Tris pH 7.5 and 90 microliter of carbonic anhydrase protein solution. After a pre-incubation for 5 min, the enzyme was added to the PNPA buffer mixture and the increase in absorbance (due to the hydrolysis of the substrate and release of p-nitrophenol) at 348 nm was monitored photometrically in a quartz cuvette over a period of 10 min. As a positive control for both activity assays, a solution of bovine carbonic anhydrase (Calbiochem, 1 mg per mL) may be used.
Enzyme was pre-incubated with 1 mM of the substances for 1 h on ice in a total volume of 50 micro liter before testing activity with 10 micro liter of the mixture with the Wilbur and Anderson, 1948 method. The control with no additives (water) was set to 100% activity. […] Instead activity with 25 micro molar concentration of the chemicals are given.

[2] = Temperature and storage stability of purified recombinant carbonic anhydrase (residual activity); type: physicochemical
Description: The carbonic anhydrase activity was determined according to Wilbur. […] 147-154. […] (see FIG. 2).

recombinant carbonic anhydrase (SEQ ID NO: 4) from Bacillus sp. P203, sequence (A0ABT0XM38 entry or part of it): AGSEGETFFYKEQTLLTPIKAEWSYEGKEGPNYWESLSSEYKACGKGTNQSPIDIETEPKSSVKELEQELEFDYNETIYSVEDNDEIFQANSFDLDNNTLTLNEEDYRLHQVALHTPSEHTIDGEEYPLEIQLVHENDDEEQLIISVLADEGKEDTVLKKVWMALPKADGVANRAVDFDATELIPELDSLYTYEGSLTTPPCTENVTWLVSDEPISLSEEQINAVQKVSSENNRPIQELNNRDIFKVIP

[N-]=[N+]=[N-] [azide]
IC50 [1]: 500 µM

B1: recombinant carbonic anhydrase: purified recombinant carbonic anhydrase (SEQ ID NO: 4) from strain Bacillus sp. P203 (protein)
chain: MRKTNVLLKSTMITTLLLSSTLLVTTPIYAHTETQQLSYKTLNDLLTEDGHSGWSYSGLTGPEYWGELNEDYKACSKGEEQSPIALQNEDIDNEKWSFDLDYEETEFSIENNGHTIQANVEGSSSNTLLLNDTEYNLVQFHFHSPSEHTLDDEYFEMEVHLVHQDEHANLAVLGVLIEEGEQNETLTDMWELMPGQQGEAAERITLNPSELVPSDLSTFQYDGSLTTPPCSEDVKWSVSDSTISLSPEQLEAFQDLYPNNYRPIQDLGNREVGFHY
modifications: Bacillus sp. P 203
notes: P203
activity remaining after storage ([2]; 4° C. in buffer F for a week): 97+/−4 % of original activity
effect of storage with DTT on stability ([2]; buffer F supplemented with 1 mM dithiothreitol (DTT)): stabilize the enzyme
activity remaining after storage ([2]; room temperature (20° C.), buffer F): 95+/−4 % of original activity
stability at elevated temperature ([2]; temperatures over 37° C., tested 4-60° C. for 1 and 17 h (FIG. 2)): rapidly decreased
activity remaining after storage ([2]; −20° C. for one week in buffer F): 99+/−4 % of original activity
